B1: library; numbered along this chain (parent)
chain: MRKPRAAVGSGHRKQAASQEGRQKHAKNNSQAKPSACDGLARQPEEVVLQASVSSYHLFRDVAEVTAFRGSLLSWYDQEKRDLPWRRRAEDEMDLDRRAYAVWVSEVMLQQTQVATVINYYTGWMQKWPTLQDLASASLEEVNQLWAGLGYYSRGRRLQEGARKVVEELGGHMPRTAETLQQLLPGVGRYTAGAIASIAFGQATGVVDGNVARVLCRVRAIGADPSSTLVSQQLWGLAQQLVDPARPGDFNQAAMELGATVCTPQRPLCSQCPVESLCRARQRVEQEQLLASGSLSGSPDVEECAPNTGQCHLCLPPSEPWDQTLGVVNFPRKASRKPPREESSATCVLEQPGALGAQILLVQRPNSGLLAGLWEFPSVTWEPSEQLQRKALLQELQRWAGPLPATHLRHLGEVVHTFSHIKLTYQVYGLALEGQTPVTTVPPGARWLTQEEFHTAAVSTAMKKVFRVYQGQQPGTCMGSKRSQVSSPCSRKKPRMGQQVLDNFFRSHISTDAHSLNSAAQ

Variants of: B1
Test: 8OG:A repair function score (normalized; synonymous = 0, nonsense = -1) (normalized log-likelihood score); higher = more repair activity (WT-like)
Details: with 8OG:A DNA repair reporter (GFP) in HEK-293 MUTYH KO cells
Summary of the method: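 With 10 pg/ml doxycycline, MUTYH knockout HEK-293 cells carrying lentiviral MUTYH cDNA NNN codon-scan libraries were co-transfected with mCherry and an 8OG:A GFP repair reporter. Viable mCherry+ cells were sorted into GFP+ (repair) and GFP− bins at 72 h, three replicates per tile, and tile amplicons were sequenced. Per-tile Rosace fitness scores were then normalized into a repair function score anchored on synonymous and nonsense distributions. Medians were fixed at 0 for synonymous and -1 for nonsense, excluding variants under 300 counts per million at the start.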

8OG:A repair function score: each site, then its substitutions
R495: C -0.00275 | W 0.0272 | D 0.0213 | Q -0.0181 | V 0.0193 | P 0.0276 | K 0.00711 | Y -0.0924 | I -0.0255 | H 0.00173 | A -0.0255 | E 0.0282 | T 0.0177 | S 0.013 | F -0.0118 | N -0.129 | G -0.0152 | M 0.0166 | L 0.017
P488: L 0.00539 | G 0.0021 | A -0.0161 | V -0.00252 | F -0.042 | H 0.0202 | C -0.0233 | Y -0.0629 | W -0.00344 | E -0.0239 | N 0.00623 | M -0.0122 | R 0.0168 | S 0.00249 | D -0.00371 | I 0.0151 | T 0.00629 | K 0.0286 | Q -0.00562
R491: Q -0.00572 | P -0.0953 | D 0.0052 | L -0.00252 | C -0.013 | G 0.00614 | E 0.0286 | N -0.0106 | S 0.00574 | F 0.0113 | A 0.00371 | M 0.0281 | H 0.0282 | Y -0.0848 | K 0.0262 | W -0.00998 | V 0.0088 | I 0.0211 | T 0.0121
Q484: L 0.00769 | A 0.00718 | I -0.0366 | K 0.0117 | V -0.0109 | H 0.0028 | T 0.0125 | Y 0.00945 | R 0.00822 | G 0.00288 | M 0.0126 | N 0.0201 | C -0.0119 | F -0.005 | W 0.00872 | E 0.022 | S -0.0175 | D -0.0184 | P 0.0115
S490: G -0.0115 | K 0.00805 | H -0.00447 | Q 0.0011 | E -0.0309 | N 0.0157 | F -0.0204 | L 0.0149 | V -0.0138 | W -0.0113 | P -0.0172 | D -0.0147 | M -0.0481 | C -0.0291 | I -0.0509 | A -0.00415 | R 0.00301 | T 0.0117 | Y -0.00381
S480: W 0.022 | N 0.0064 | R 0.00162 | L -0.0111 | Y -0.0114 | I -0.0226 | V 0.00525 | H 0.0192 | K 0.0154 | A 0.0216 | E -0.00292 | Q -0.00583 | T 0.0286 | G 0.00341 | P -0.000393 | D 0.0166 | C -0.0352 | F -0.0271 | M 0.0231
S487: Q -0.00246 | Y 0.00217 | D 0.0137 | H 0.00963 | M 0.0121 | L -5.82e-05 | E 0.00844 | A 0.0181 | T -0.0203 | K 0.0147 | W -0.00878 | P -0.0175 | C 0.0168 | V 0.0175 | G -0.00491 | N 0.0119 | F -0.00307 | I -0.00284 | R 0.0273
S483: C 0.025 | V 0.0104 | K -0.04 | F 0.0169 | M -0.00708 | R 0.0251 | Y -0.0745 | E -0.0311 | D 0.0208 | H 0.00458 | P 0.0199 | G -0.0331 | I -0.00113 | N 0.0224 | W -0.033 | T -0.0473 | L 0.00323 | A 0.00092
P494: A 0.0124 | D -0.00383 | C 0.0281 | K -0.0663 | Y -0.00726 | N 0.0224 | V -0.0025 | M -0.0511 | I 0.0172 | Q -0.000555 | L -0.00201 | T 0.0124 | F -0.0209 | E 0.0133 | G -0.0242 | S -0.00543

Source: the supplement of paper PMC11908140
